The source of these data is patent WO2017204277A1.

The target of the test is mature h(m)TGF-beta3 (mature form of human (mouse) TGF-beta3) (human (mouse); the filing says the mature forms are identical). As to the kind of experiment: cell-based or functional assay.

Turning to GC1008-hIgG1 (antibody), the suppression of TGF-beta3 physiological activity (Smad signal), SEAP activity of HEK-Blue TGFb cells, OD620nm worked out at 100%.
